Six molecules from patent US20170029841A1, “METHODS AND COMPOSITIONS FOR SELECTIVE REGULATION OF PROTEIN EXPRESSION” (priority 2015, published 2017) can be followed below.

Like-named read-outs stand apart in the source and are kept apart here.

The subject of one data set is transgenic maize plants. Conditions: for AES90+8 (LSD = 10): average anther extrusion at S90+8, same glyphosate regimen; for Seed Yield bu/acre (LSD = 24.7): end of season; for CIPVT (LSD = 8.1): glyphosate 1.5 lbs ae/acre at V2, 0.75 at V8, 0.75 at V10, range over events; for Avg. plant height (inches) (LSD = 6.9): in vivo.
In data set [1] the test system is transgenic maize R0 plants (double copy events). Description: R0 plant greenhouse glyphosate spray: vegetative tolerance and induced male sterility. Type of data set: in vivo. Conditions: for % Vegetative Tolerant / % Vegetative Tolerance: glyphosate 0.75 lb ae/acre at V5 then V8; for % Vegetative Tolerant: <=10% injury 7 days after V5 spray. The method, then:
Transformation vectors containing the recombinant DNA constructs were used with an Agrobacterium-based transformation method and maize immature embryos and techniques known in the art. Leaf samples of R0 plants were collected and molecular analysis was conducted to select transgenic plants containing a single copy (one insertion) or a double copy (two independent insertions) of the recombinant DNA construct and no presence of vector backbone. Single copy events were not sprayed with glyphosate and were selfed and advanced for R1 seed collection, while double copy events were used for R0 glyphosate spray to assess vegetative tolerance and induced male sterility. Transgenic plants that were not sprayed with glyphosate had normal anthesis, normal pollen shedding, and normal pollen development as determined by Alexandar staining and microscopic observation.
Double copy R0 events were used in testing to approximate a single copy homozygous event. Plants were sprayed with glyphosate at two different growth stages to determine if the presence of the mts-siRNA target element in the recombinant DNA construct provided vegetative glyphosate tolerance and glyphosate-induced tassel sterility. The plants were sprayed in a greenhouse with 1× glyphosate (0.75 lb ae/acre) applied at the V5 stage followed by 1× glyphosate (0.75 lb ae/acre) applied at the V8 stage. Seven days after the V5 stage glyphosate application, plants were scored for vegetative injury with scores of ≦10% injury considered as showing vegetative glyphosate tolerance (% Vegetative Tolerant). Male sterility was measured in two ways. […] Anthers were then collected and dissected to microscopically observe pollen development. Anthers for each event were tested for no viable pollen grains produced as detected by Alexandar staining under microscopic observation and scored as not producing any viable pollen (% No Pollen). In plants not sprayed with glyphosate, tassel development, anther extrusion, and pollen development were normal.
The mts-siRNA target elements were tested in multiple transformation vector configurations. Each transformation vector was used to produce multiple R0 plants with each R0 plant representing a unique transgenic event made using the same transformation vector. Data for three different transformation vector configurations are provided as Tables 11 and 12.

Where [2] appears, read: vector configuration A, no anther extrusion up to S90+12 after V8 glyphosate.
The mark [3] stands for this setting: vector configuration A, no viable pollen by Alexandar staining.

B1: SEQ ID NO: 4: mts-siRNA target element, nucleotide positions 477 to 697 of cDNA SEQ ID NO: 18 (nucleic acid)
DNA: ACGAGGGAATGTCATTGGTCGATGAGTTGGAGGCGTCAAATGCAGATAAAGCTACAACTTCCATGTGGAGGATGACTGCGACGTTGTGGCAGACTCATCCACTACAGTGAGAGTCTAGGAAAGCATGAAGCCGATTGTGGACATCGATGTCGGTGTCAAGGACTTATAGATGTCATGTTGGGAGAGCAACCATGGCACGATAGTTAAGGCGCAAGGGTATC
modifications: Zea mays
B1: in the data set with transgenic maize plants (listed as 4), the “AES90+8 (LSD = 10)” value was 16.25-18.75% and the “CIPVT (LSD = 8.1)” value is recorded as 1.25-3.75%. In addition, in the data set with transgenic maize plants, the “Seed Yield bu/acre (LSD = 24.7)” value is 70-80 bu/acre and the “CIPVT (LSD = 8.1)” value was “No significant difference”. For the same molecule, in data set [1] (vector configuration A), the “% Vegetative Tolerant” value is listed as 86%. Also, the “% Completely Male-sterile” value in data set [1] (setting [2]) is recorded as 7%. Moreover, the “% No Pollen” value in data set [1] (setting [3]) came to 0%.

B2: SEQ ID NO: 5: mts-siRNA target element, nucleotide positions 239 to 433 of cDNA SEQ ID NO: 19 (nucleic acid)
DNA: TGGCTGCTTCTGTTGGCGTGAAAGCTCGAGTGCTCCTAAATGGTCGTCGTATTAGCTGATACGACATCTACCCGATGCAATAGATAATATTGTTTACACGCGTGAGTC
modifications: chemistry not fully specified; the letters are possibly those of the target site
In the case of B2, in the data set on transgenic maize plants (listed as 5), the “AES90+8 (LSD = 10)” value is listed as 10%-20% and the “CIPVT (LSD = 8.1)” value came to 5%. Also, the “CIPVT (LSD = 8.1)” value in the data set on transgenic maize plants is given as “No significant difference”. In addition, the “% Vegetative Tolerant” value in data set [1] (vector configuration A, listed as 5) is reported as 90%. The “% Completely Male-sterile” value in data set [1] (vector configuration A, no anther extrusion up to S90+12 after V8 glyphosate, listed as 5) is 50%. Also, in data set [1] (setting [3]), the “% No Pollen” value was found to be 0%.

B3: SEQ ID NO: 1: mts-siRNA target element, 95% identity to nucleotide positions 1429 to 1628 of cDNA SEQ ID NO: 17 (nucleic acid)
DNA: AGACGACGACCGTGCATGGTGATGAATCACAGACGACGAACACGCATGTCGCATCGCCGTCCTCTTTGTATCACACAGCATCACCTTCTTCGCTCTACTACTCCCCCGAGCAATCACCGACCAATAACACCAACCATCAACCTCCCCCGTCGCCGCCGCCTTCACCGTCCTCCCCTCACACCATAGAACTGCAAATGTCCG
Take B3: in the data set on transgenic maize plants, the “AES90+8 (LSD = 10)” value is reported as 0-2.75%, the “Seed Yield bu/acre (LSD = 24.7)” value is “no significant decrease”, the “CIPVT (LSD = 8.1)” value was “No significant difference” and the “Avg. plant height (inches) (LSD = 6.9)” value is “No significant difference”. In the data set on transgenic maize plants (listed as 1), the “AES90+8 (LSD = 10)” value is 0-2.75%, the “Seed Yield bu/acre (LSD = 24.7)” value is listed as 97-99 bu/acre, the “CIPVT (LSD = 8.1)” value is listed as 2.5-6.25% and the “Avg. plant height (inches) (LSD = 6.9)” value stood at 84.75 inches. Moreover, in data set [1] (vector configuration B), the “% Completely Male-sterile” value came out at 100%, the “% No Pollen” value turned out to be 100% and the “% Vegetative Tolerance” value is 67%. Moreover, in data set [1] (vector configuration C), the “% Completely Male-sterile” value amounted to 100%, the “% No Pollen” value came out at 60% and the “% Vegetative Tolerance” value is 38%.

B4: SEQ ID NO: 6: mts-siRNA target element, nucleotide positions 370 to 477 of cDNA SEQ ID NO: 19 (nucleic acid)
DNA: TCGCCGAGAAGGGAGTAGTAGTATTACCTGATATCTATGCTAATTCAGGTGGTGTGGTCGTTAGCTACTTTAATTGAGTGGGTTCAGAACATTCAAGGTTTCATGTGG
modifications: chemistry not fully specified; the letters are possibly those of the target site
With B4, in the data set on transgenic maize plants (listed as 6), the “AES90+8 (LSD = 10)” value is on record as 25% and the “CIPVT (LSD = 8.1)” value came out at 3.75%. Further, the “CIPVT (LSD = 8.1)” value in the data set on transgenic maize plants is on record as “No significant difference”. Besides, the “% Vegetative Tolerant” value in data set [1] (vector configuration A) is 90%. Further, in data set [1] (setting [2]), the “% Completely Male-sterile” value was determined as 82%. The “% No Pollen” value in data set [1] (setting [3]) is listed as 0%.

B5: SEQ ID NO: 8: mts-siRNA target element, nucleotide positions 247 to 441 of cDNA SEQ ID NO: 21 (nucleic acid)
DNA: AGATTGGTCATACACTAGATAGGGCTAGATCACTCGGGTCGCCACAAGTTGAAGAATGCAAAGAGTGTCCACATGATTTCATGGTGATGAACAGTGATTTTATGAGCAAACTAGCAAAGGATAATCAGTTGCATATATGTGATGAAGACCGATCAGTTTCCGAGCAAAGTAGCAAATGAGTCATCGAAGCTGTCA
modifications: Zea mays
For B5, in the data set on transgenic maize plants (listed as 8), the “AES90+8 (LSD = 10)” value is listed as 15.75-17.85%, the “CIPVT (LSD = 8.1)” value is listed as 2.5-2.7% and the “Avg. plant height (inches) (LSD = 6.9)” value turned out to be 80.1 inches. Further, in the data set on transgenic maize plants, the “Seed Yield bu/acre (LSD = 24.7)” value was 80-90 bu/acre, the “CIPVT (LSD = 8.1)” value is “No significant difference” and the “Avg. plant height (inches) (LSD = 6.9)” value was “No significant difference”. Moreover, in data set [1] (vector configuration A, listed as 8), the “% Vegetative Tolerant” value is given as 90%. Moreover, the “% Completely Male-sterile” value in data set [1] (vector configuration A, no anther extrusion up to S90+12 after V8 glyphosate, listed as 8) was 100%. For the same molecule, the “% No Pollen” value in data set [1] (setting [3]) was 50%.

B6: SEQ ID NO: 7: mts-siRNA target element, nucleotide positions 1357 to 1562 of cDNA SEQ ID NO: 20 (nucleic acid)
DNA: GGAACCGGTGACCAGCTGCACGACGATGAATCCTACAAGACGACCATGTAATACACAGTGTCGTCCTCTTCGTTCTACTACTCAACAGAGCAGTCGCCGACCAATAACGAATGGAGTATTATCTCTGTCCTTCACCTTACACCATATTCACACCATAGAACTGCAAATGTCCGAGGTACCAACTAACATCGGTACCTTTGGCATGA
modifications: Zea mays
For the molecule B6, in the data set on transgenic maize plants, the “AES90+8 (LSD = 10)” value was 0-1.5%, the “Seed Yield bu/acre (LSD = 24.7)” value is given as “no significant decrease”, the “CIPVT (LSD = 8.1)” value is on record as “No significant difference” and the “Avg. plant height (inches) (LSD = 6.9)” value is given as “No significant difference”. For the same molecule, in the data set on transgenic maize plants (listed as 7), the “AES90+8 (LSD = 10)” value is listed as 0-1.5%, the “Seed Yield bu/acre (LSD = 24.7)” value is given as 100-110 bu/acre, the “CIPVT (LSD = 8.1)” value is recorded as 3.75-5% and the “Avg. plant height (inches) (LSD = 6.9)” value was determined as 79.8 inches. The “% Vegetative Tolerant” value in data set [1] (vector configuration A, listed as 7) is 88%. In data set [1] (vector configuration A, no anther extrusion up to S90+12 after V8 glyphosate, listed as 7), the “% Completely Male-sterile” value is 100%. The “% No Pollen” value in data set [1] (setting [3]) is on record as 44%.
